Drawing on article PMC4619345, “Key Amino Acids in the Bacterial (6-4) Photolyase PhrB from Agrobacterium fabrum”, this text covers Kd for 2 molecules.

What all share (settings): protein: recombinant; tags: C-terminal poly-His (pET21); label: 5' 32P; single strand
The target in series [1] is T1, PhrB Y424F (Agrobacterium fabrum, UniProt A9CH39 1-507, Y424F).
T1 sequence: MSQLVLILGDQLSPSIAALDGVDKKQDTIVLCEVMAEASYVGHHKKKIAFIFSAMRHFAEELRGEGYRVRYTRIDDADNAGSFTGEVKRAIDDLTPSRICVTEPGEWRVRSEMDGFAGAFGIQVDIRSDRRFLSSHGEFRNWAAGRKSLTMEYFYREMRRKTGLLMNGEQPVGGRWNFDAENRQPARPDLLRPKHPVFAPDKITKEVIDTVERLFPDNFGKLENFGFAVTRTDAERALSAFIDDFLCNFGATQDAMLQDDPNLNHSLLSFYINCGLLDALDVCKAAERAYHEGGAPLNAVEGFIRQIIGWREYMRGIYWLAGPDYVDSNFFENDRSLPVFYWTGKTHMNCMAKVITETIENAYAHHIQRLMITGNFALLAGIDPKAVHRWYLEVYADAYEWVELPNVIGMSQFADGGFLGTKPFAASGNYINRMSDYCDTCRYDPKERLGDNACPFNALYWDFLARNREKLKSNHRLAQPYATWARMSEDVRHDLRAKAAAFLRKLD
Put plainly: EMSA; reduced FAD, darkness; […] (buffer 1: 50 mM Tris-HCl pH 7.0, 1 mM EDTA, 100 mM NaCl, 5% glycerol, 20 mM DTT); or buffer 2: pH 7.5, 10 mM DTT; […].

Series [2] addresses T2, PhrB Y460F (Agrobacterium fabrum, UniProt A9CH39 1-507, Y460F).
T2 sequence: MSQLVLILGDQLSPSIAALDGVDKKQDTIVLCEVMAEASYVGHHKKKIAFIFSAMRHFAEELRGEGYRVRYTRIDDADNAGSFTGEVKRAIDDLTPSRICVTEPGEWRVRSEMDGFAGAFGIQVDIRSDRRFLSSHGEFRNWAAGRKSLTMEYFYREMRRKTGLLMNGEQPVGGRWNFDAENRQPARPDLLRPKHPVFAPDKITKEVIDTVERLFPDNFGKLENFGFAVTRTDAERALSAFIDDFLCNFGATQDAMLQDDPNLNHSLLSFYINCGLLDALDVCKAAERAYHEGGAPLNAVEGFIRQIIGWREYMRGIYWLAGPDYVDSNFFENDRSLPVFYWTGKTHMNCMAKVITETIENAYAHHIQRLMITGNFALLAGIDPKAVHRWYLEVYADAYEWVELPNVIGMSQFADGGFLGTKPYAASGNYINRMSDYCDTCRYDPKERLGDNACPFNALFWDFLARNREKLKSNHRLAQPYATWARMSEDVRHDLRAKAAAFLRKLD
Described as above.

Series [3] has as its target T3, PhrB Y430F (Agrobacterium fabrum, UniProt A9CH39 1-507, Y430F).
T3 sequence: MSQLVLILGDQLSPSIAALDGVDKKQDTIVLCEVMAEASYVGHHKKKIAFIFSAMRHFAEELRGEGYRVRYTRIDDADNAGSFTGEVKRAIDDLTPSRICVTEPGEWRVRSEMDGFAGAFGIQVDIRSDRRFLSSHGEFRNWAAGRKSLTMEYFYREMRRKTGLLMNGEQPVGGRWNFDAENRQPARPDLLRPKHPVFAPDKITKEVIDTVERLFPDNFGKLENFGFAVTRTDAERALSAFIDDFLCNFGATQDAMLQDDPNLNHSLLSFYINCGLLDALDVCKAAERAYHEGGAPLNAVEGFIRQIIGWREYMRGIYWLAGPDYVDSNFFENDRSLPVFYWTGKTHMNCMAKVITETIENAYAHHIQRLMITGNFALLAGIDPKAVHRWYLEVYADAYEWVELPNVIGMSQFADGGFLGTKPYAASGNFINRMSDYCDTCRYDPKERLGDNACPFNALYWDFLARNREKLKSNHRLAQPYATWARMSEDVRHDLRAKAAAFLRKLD
The description is as above.

Series [4] concerns the target T4, PhrB (Agrobacterium fabrum, UniProt A9CH39 1-507).
T4 sequence: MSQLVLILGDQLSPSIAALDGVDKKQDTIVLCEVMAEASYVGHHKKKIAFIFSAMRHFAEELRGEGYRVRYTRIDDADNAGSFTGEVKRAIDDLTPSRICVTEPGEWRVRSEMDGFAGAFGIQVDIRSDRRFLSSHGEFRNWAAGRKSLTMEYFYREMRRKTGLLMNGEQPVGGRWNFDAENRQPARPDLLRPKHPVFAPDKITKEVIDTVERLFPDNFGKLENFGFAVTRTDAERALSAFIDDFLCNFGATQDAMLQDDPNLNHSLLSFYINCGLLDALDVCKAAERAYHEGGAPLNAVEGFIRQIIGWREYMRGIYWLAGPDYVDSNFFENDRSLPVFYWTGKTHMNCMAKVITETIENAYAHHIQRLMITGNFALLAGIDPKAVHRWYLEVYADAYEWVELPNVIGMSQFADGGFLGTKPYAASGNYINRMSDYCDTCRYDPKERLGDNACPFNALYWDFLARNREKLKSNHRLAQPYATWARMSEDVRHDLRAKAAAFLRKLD
Put plainly: EMSA; reduced FAD, darkness; EMSA in repair buffer (buffer 1: 50 mM Tris-HCl pH 7.0, 1 mM EDTA, 100 mM NaCl, 5% glycerol, 20 mM DTT; or buffer 2: pH 7.5, 10 mM DTT; which one not stated), 28 nM DNA, 10% TBE-PAGE at 4 C in darkness.

Regarding CATAGGTTGGCATA (ssDNA) [EMSA_1 undamaged], the equilibrium dissociation constant (Kd) in series [1] came out at 28 ± 3 µM; in series [2] it was 25 ± 3 µM; in series [3], 27 ± 2 µM; in series [4], 25 ± 3 µM.
As to CATAGGTTGGCATA (ssDNA, (6-4) photoproduct at T7-T8 (the only TT; 254 nm UV, HPLC purified)) [EMSA_1 (6-4)TT photoproduct], the Kd is 18 ± 2 µM in series [1], 0.025 ± 0.003 µM in series [2], 0.027 ± 0.003 µM in series [3] and 0.013 ± 0.002 µM in series [4].
